Values joined by “and” are separate entries in the source; they are usually repeats but may differ in a detail not shown here. Identical values can stand only once. Bridges are numbered along the chain shown (N, C = ends). Where no end group is shown, it is not given here. [ ]: non-standard residue; d: D form. NMeW = CN[C@@H](Cc1c[nH]c2ccccc12)C(=O)O; αMeV = CC(C)[C@](C)(N)C(=O)O; αMeS = C[C@](N)(CO)C(=O)O; NMeA = CN[C@@H](C)C(=O)O
T1: β-catenin (UniProt P35222 134-665, limits assumed, biotinylated in the SPR and plate assays)
T1 construct: also called beta catenin; biotinylated β-catenin
T1 sequence (looked up): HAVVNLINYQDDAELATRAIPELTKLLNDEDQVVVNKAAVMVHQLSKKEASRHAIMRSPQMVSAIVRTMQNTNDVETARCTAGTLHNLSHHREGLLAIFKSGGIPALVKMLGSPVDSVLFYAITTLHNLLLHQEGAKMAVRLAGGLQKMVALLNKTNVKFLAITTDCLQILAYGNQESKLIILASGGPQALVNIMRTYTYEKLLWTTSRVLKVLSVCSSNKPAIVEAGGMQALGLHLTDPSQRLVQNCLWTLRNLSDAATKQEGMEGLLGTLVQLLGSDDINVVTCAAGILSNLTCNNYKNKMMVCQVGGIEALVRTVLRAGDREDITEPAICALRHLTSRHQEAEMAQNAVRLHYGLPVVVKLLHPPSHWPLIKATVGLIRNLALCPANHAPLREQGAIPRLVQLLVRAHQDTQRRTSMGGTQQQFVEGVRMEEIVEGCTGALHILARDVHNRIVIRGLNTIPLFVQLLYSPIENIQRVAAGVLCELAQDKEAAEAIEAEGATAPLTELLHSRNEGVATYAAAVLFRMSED


Legend:
[1] = target: T1, β-catenin; experiment: competitive FP
Procedure, shortened: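 Competitive fluorescence polarization with inhibitor peptide serially diluted from 10 nM to 30 uM; polarization read at 470 nm excitation, 520 nm emission. Experiments performed three times.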

[2] = target: T1, β-catenin; experiment: cell-based or functional assay

Binder | Kd [1] | Wnt Reporter EC50 [2]
W[NMeA]QSILDEHVQKVWG-NH2 (lactam 8-12; not fully specified (N-terminus); printed as H23C11C(O)NH-W-NmeA-QSILDE*HVQK*VWG-NH2) [SEQ ID NO: 439] | ≤ 0.4 µM | > 7.5 µM and ≤ 15 µM
WPQSILDEHGQKVWG (not fully specified; Lauroyl-NH-WPQSILDE*H-Chg-QK*VWG-NH2) [SEQ ID NO: 473] | ≤ 0.4 µM | ≤ 7.5 µM
ARLPESILDEHVQRVWP (HELM PEPTIDE1{[ac].[bAla].R.L.P.E.S.I.L.D.E.H.V.Q.R.V.W.P.[am]}$$$$V2.0; SMILES CC[C@H](C)[C@H](NC(=O)[C@H](CO)NC(=O)[C@H](CCC(=O)O)NC(=O)[C@@H]1CCCN1C(=O)[C@H](CC(C)C)NC(=O)[C@H](CCCNC(=N)N)NC(=O)CCNC(C)=O)C(=O)N[C@@H](CC(C)C)C(=O)N[C@@H](CC(=O)O)C(=O)N[C@@H](CCC(=O)O)C(=O)N[C@@H](Cc1c[nH]cn1)C(=O)N[C@H](C(=O)N[C@@H](CCC(N)=O)C(=O)N[C@@H](CCCNC(=N)N)C(=O)N[C@H](C(=O)N[C@@H](Cc1c[nH]c2ccccc12)C(=O)N1CCC[C@H]1C(N)=O)C(C)C)C(C)C) [SEQ ID NO: 413] | ≤ 0.4 µM | > 30 µM
WAQKILDEHGQRVWG (HELM PEPTIDE1{[ac].W.A.Q.K.I.L.D.E.H.[O=C([C@@H](N[*:1])C1CCCCC1)[*:2]].Q.R.V.W.G.[am]}$PEPTIDE1,PEPTIDE1,5:R3-9:R3$$$V2.0; SMILES CC[C@H](C)[C@@H]1NC(=O)[C@@H](NC(=O)[C@H](CCC(N)=O)NC(=O)[C@H](C)NC(=O)[C@H](Cc2c[nH]c3ccccc23)NC(C)=O)CCCCNC(=O)CC[C@@H](C(=O)N[C@@H](Cc2c[nH]cn2)C(=O)N[C@H](C(=O)N[C@@H](CCC(N)=O)C(=O)N[C@@H](CCCNC(=N)N)C(=O)N[C@H](C(=O)N[C@@H](Cc2c[nH]c3ccccc23)C(=O)NCC(N)=O)C(C)C)C2CCCCC2)NC(=O)[C@H](CC(=O)O)NC(=O)[C@H](CC(C)C)NC1=O) [SEQ ID NO: 441] | ≤ 0.4 µM | > 30 µM
H-W[NMeW]ESILDEH[αMeV]QRVWG-NH2 [SEQ ID NO: 39] | ≤ 0.4 µM | > 30 µM
RWPQKILDEHVRRVWR (HELM PEPTIDE1{[ac].R.W.P.Q.K.I.L.D.E.H.V.R.R.V.W.R.[am]}$PEPTIDE1,PEPTIDE1,6:R3-10:R3$$$V2.0; SMILES CC[C@H](C)[C@@H]1NC(=O)[C@@H](NC(=O)[C@H](CCC(N)=O)NC(=O)[C@@H]2CCCN2C(=O)[C@H](Cc2c[nH]c3ccccc23)NC(=O)[C@H](CCCNC(=N)N)NC(C)=O)CCCCNC(=O)CC[C@@H](C(=O)N[C@@H](Cc2c[nH]cn2)C(=O)N[C@H](C(=O)N[C@@H](CCCNC(=N)N)C(=O)N[C@@H](CCCNC(=N)N)C(=O)N[C@H](C(=O)N[C@@H](Cc2c[nH]c3ccccc23)C(=O)N[C@@H](CCCNC(=N)N)C(N)=O)C(C)C)C(C)C)NC(=O)[C@H](CC(=O)O)NC(=O)[C@H](CC(C)C)NC1=O) [SEQ ID NO: 428] | ≤ 0.4 µM | > 30 µM
WXQKILDEHGQRVWG (HELM PEPTIDE1{[ac].W.[Aib].Q.K.I.L.D.E.H.[O=C([C@@H](N[*:1])C1CCCCC1)[*:2]].Q.R.V.W.G.[am]}$PEPTIDE1,PEPTIDE1,5:R3-9:R3$$$V2.0; SMILES CC[C@H](C)[C@@H]1NC(=O)[C@@H](NC(=O)[C@H](CCC(N)=O)NC(=O)C(C)(C)NC(=O)[C@H](Cc2c[nH]c3ccccc23)NC(C)=O)CCCCNC(=O)CC[C@@H](C(=O)N[C@@H](Cc2c[nH]cn2)C(=O)N[C@H](C(=O)N[C@@H](CCC(N)=O)C(=O)N[C@@H](CCCNC(=N)N)C(=O)N[C@H](C(=O)N[C@@H](Cc2c[nH]c3ccccc23)C(=O)NCC(N)=O)C(C)C)C2CCCCC2)NC(=O)[C@H](CC(=O)O)NC(=O)[C@H](CC(C)C)NC1=O) [SEQ ID NO: 443] | ≤ 0.4 µM | > 7.5 µM and ≤ 15 µM
QKILDEHGQRVWG (HELM PEPTIDE1{[ac].Q.K.I.L.D.E.H.[O=C([C@@H](N[*:1])C1CCCCC1)[*:2]].Q.R.V.W.G.[am]}$PEPTIDE1,PEPTIDE1,3:R3-7:R3$$$V2.0; SMILES CC[C@H](C)[C@@H]1NC(=O)[C@@H](NC(=O)[C@H](CCC(N)=O)NC(C)=O)CCCCNC(=O)CC[C@@H](C(=O)N[C@@H](Cc2c[nH]cn2)C(=O)N[C@H](C(=O)N[C@@H](CCC(N)=O)C(=O)N[C@@H](CCCNC(=N)N)C(=O)N[C@H](C(=O)N[C@@H](Cc2c[nH]c3ccccc23)C(=O)NCC(N)=O)C(C)C)C2CCCCC2)NC(=O)[C@H](CC(=O)O)NC(=O)[C@H](CC(C)C)NC1=O) [SEQ ID NO: 440] | ≤ 0.4 µM | > 22.5 µM and ≤ 30 µM
ARLPESILDEHVQRVWP (HELM PEPTIDE1{[bAla].R.L.P.E.S.I.L.D.E.H.V.Q.R.V.W.P.[am]}$$$$V2.0; SMILES CC[C@H](C)[C@H](NC(=O)[C@H](CO)NC(=O)[C@H](CCC(=O)O)NC(=O)[C@@H]1CCCN1C(=O)[C@H](CC(C)C)NC(=O)[C@H](CCCNC(=N)N)NC(=O)CCN)C(=O)N[C@@H](CC(C)C)C(=O)N[C@@H](CC(=O)O)C(=O)N[C@@H](CCC(=O)O)C(=O)N[C@@H](Cc1c[nH]cn1)C(=O)N[C@H](C(=O)N[C@@H](CCC(N)=O)C(=O)N[C@@H](CCCNC(=N)N)C(=O)N[C@H](C(=O)N[C@@H](Cc1c[nH]c2ccccc12)C(=O)N1CCC[C@H]1C(N)=O)C(C)C)C(C)C) [SEQ ID NO: 410] | > 0.4 µM and ≤ 1 µM | > 30 µM

More lines, now with the values ahead:

Kd [1] | Wnt Reporter EC50 [2] | Binder
≤ 0.4 µM | > 30 µM | EDPQKILDEHLQRVLK (not fully specified; H23C11C(O)NH-EDPQK*ILDE*HLQRVLK-NH2) [SEQ ID NO: 444]
≤ 0.4 µM | ≤ 7.5 µM | WXQKILDEHGQRVWG (HELM PEPTIDE1{[ac].W.[O=C([C@@H]1CCCCN1[*:1])[*:2]].Q.K.I.L.D.E.H.[O=C([C@@H](N[*:1])C1CCCCC1)[*:2]].Q.R.V.W.G.[am]}$PEPTIDE1,PEPTIDE1,5:R3-9:R3$$$V2.0; SMILES CC[C@H](C)[C@@H]1NC(=O)[C@@H](NC(=O)[C@H](CCC(N)=O)NC(=O)[C@@H]2CCCCN2C(=O)[C@H](Cc2c[nH]c3ccccc23)NC(C)=O)CCCCNC(=O)CC[C@@H](C(=O)N[C@@H](Cc2c[nH]cn2)C(=O)N[C@H](C(=O)N[C@@H](CCC(N)=O)C(=O)N[C@@H](CCCNC(=N)N)C(=O)N[C@H](C(=O)N[C@@H](Cc2c[nH]c3ccccc23)C(=O)NCC(N)=O)C(C)C)C2CCCCC2)NC(=O)[C@H](CC(=O)O)NC(=O)[C@H](CC(C)C)NC1=O) [SEQ ID NO: 442]
≤ 0.4 µM | > 30 µM | H-W[NMeW]E[αMeS]ILDEHVQRVWG-NH2 [SEQ ID NO: 40]
≤ 0.4 µM | ≤ 7.5 µM | W[NMeA]QSILDEHVQKVWG-NH2 (lactam 8-12; not fully specified (N-terminus); printed as H17C8C(O)NH-W-NmeA-QSILDE*HVQK*VWG-NH2) [SEQ ID NO: 438]
≤ 0.4 µM | > 7.5 µM and ≤ 15 µM | WPQSILDEHGQKVWG (not fully specified; Ac-NH-WPQSILDE*H-Chg-QK*VWG-NH2) [SEQ ID NO: 472]

Reference: patent publication US20260098059A1 (ENDOMET BIOSCIENCES, published 2026)
